Laboratory results as given in patent publication US6710030B1, “Contortrostain (CN) and methods for its use in preventing metastasis and other conditions” (University of Southern California, priority 1993, dated 2004).
Entries after “also recorded” stand apart in the source; their conditions may differ. Read-outs that look alike come from different tables or passages of the source.

Tests used:
[1] = system: human melanoma M24 met cells; assay: CN binding to human melanoma M24 met cells
Text: The compositions of the present invention also have utility in inhibiting metastasis in melanoma, carcinoma and sarcoma patients. […] Thus, methods and compositions for preventing metastases in melanoma, carcinoma and sarcoma patients are also contemplated as within the scope of the present invention.

[2] = system: canine carotid artery thrombosis model; assay: Reoccluding canine carotid artery thrombosis model; assay type: in vivo
Text: The model of carotid artery thrombosis in the anesthetized canine described is a modification of one developed for the study of experimentally-induced coronary artery thrombosis [Romson, J. L. et al., Thromb. Res. 17:841 (1980)]. The experimental procedure results in the formation of a platelet rich intravascular thrombus at the site of an electrolytically-induced endothelial lesion in proximity to a distal arterial stenosis. The carotid artery is selected for the experimental model, thereby allowing one vessel to be used as a control and the other to be used after administration of the thrombolytic and antithrombotic therapy. APSAC (anisoylated plasminogen streptokinase activator complex) has been used as the thrombolytic agent successfully in this model. […] Parameters which are recorded include repeated measures of: phasic and mean carotid artery blood flow velocity using an ultrasonic flow probe, time to thrombotic occlusion, time to recannulization, ex vivo platelet aggregation, prothrombin time, thrombin time, activated partial thromboplastin time, red cell and white cell counts, hematocrit, EKG profile and body temperature, before and after administration of APSAC or APSAC plus CN to separate groups of animals.
Conditioned male mongrel dogs (8-10 kg) have been used for all in vivo studies. […] Arterial blood pressure is monitored from the cannulated femoral artery with the use of a blood pressure transducer. […] Blood flow velocity in the carotid vessels is monitored continuously. […]
Electrolytic injury to the intimal surface of each carotid vessel is accomplished with the use of an intravascular electrode. […] The current delivered to each vessel is monitored continuously and maintained at 300 μA. […]

[3] = system: MDA-MB-435 cells; assay: Adhesion of MDA-MB-435 cells to immobilized ECM proteins; assay type: cell-based, human
Experimental: The effect of CN on binding of highly metastatic human breast cancer cells, MDA-MB-435 cell line, to ECM proteins was examined. Human fibronectin and vitronectin were immobilized in the wells of 96-well microtiter plates. […] In a variation of the above experiments, CN was immobilized. […] Referring to FIGS. 12 and 13, varying concentrations of GRGDSP (FIG. 12) or EDTA (FIG. 13) were used to inhibit binding of human mammary carcinoma cells to immobilized CN. CN was at 0.1 μg/well. The vertical line at each data point indicates the y-axis error bar. All experiments were conducted as three sets of triplicates for each data point.

[4] = system: MDA-MB-435 tumor; assay: Orthotopic MDA-MB-435 breast cancer metastatic model in nude mice; assay type: in vivo
Experimental: A spontaneous (orthotopic) metastatic model of nude mice has been established by implantation of MDA-MB-435 cells (5×10^5 in 0.1 ml) in the mammary fat pads (mfp). Palpable tumors appeared by the 10th day post-implantation. Daily injections of CN into the tumor masses of each of the groups arc carried out, started at the 14th day post-implantation. By the 8th week post-implantation, tumors were removed. The animals were allowed to survive for 2 more weeks without CN administration. The animals were then sacrificed and lung metastases were carefully examined. […] The volumes of tumor masses (mean±S.D.) of control (dark bars), low-dosage (0.5 μg/day, gray bars), and high-dosage (5 μ/day, light gray bars) CN-treated group are shown. The seven clusters of bars from left to right represent the data of pre-injection (PI, 14th day post-implantation) and the 1st through 6th week of injection. Student t-tests were employed to test the significance of differences. *and** indicate P<0.05 and p<0.01, respectively.

[5] = system: KSY-1 Kaposi's sarcoma cells; assay: Phosphotyrosine immunoblot, KSY-1 Kaposi's sarcoma cells; assay type: cell-based; conditions: data not shown
[6] = system: T24 cells; assay: Cellular binding to laminin and Matrigel; assay type: cell-based, human
[7] = system: human platelet rich plasma; conditions: cited from earlier work
[8] = system: human fibrosarcoma (HT-1080) cells; conditions: cited from earlier work

B1: contortrostatin (protein)
chain: DAPANPCCDAATCKLTTGSQCADGLCCDQCKFMKEGTVCRRARGDDLDDYCNGISAGCPRNPFHA
number of sites, high affinity site [1]: 96,000 (±39,000) sites per cell
number of sites, lower affinity site [1]: 480,000 (±90,000) sites per cell
Kd ([1]; read-out: Kd, lower affinity site): 41 nM
Kd ([1]; read-out: dissociation constant (Kd), high affinity site): 1.1 nM
recovery of platelet counts ([2]; by the conclusion of the experimental procedure): 30-40 % of the baseline value
drop in platelet counts ([2]; during experiment, APSAC plus CN (0.155 mg/kg)): 10-20 % of the baseline value
changes in mean arterial blood pressure or mean heart rate ([2]; following infusion of CN): essentially no changes
effect on adhesion to human or rat type I collagen [3]: minimal effect
IC50 ([3]; immobilized human fibronectin, read-out: IC50 for adhesion to fibronectin): 18 nM
IC50 ([3]; immobilized human vitronectin, read-out: IC50 for adhesion to vitronectin): 1.5 nM
# of nodules in lung (median) ([4]; 5 μg/day): 4.5
Mean size of relapse tumor ([4]; 5 μg/day): 48.7 ± 10.5 mm^3
In situ relapse ([4]; 5 μg/day, animals with/total): 2/6
Metastasis incidence, Other Organs ([4]; 5 μg/day, chest wall, mediastinum, diaphragm, pleurae): 2/6
growth of the tumor (tumor mass volume) ([4]; daily local injection into tumor): substantially inhibited the growth rate of the tumor; also recorded: significantly smaller
inhibition of metastasis ([4]; high dose CN group versus control): > 90%
mean weight of tumors ([4]; high-dose CN (5 μg/day), P<0.05): significantly lower than control group
bleeding at the injection sites ([4]; mouse, in vivo): Some bleeding at the injection sites
spontaneous hemorrhage ([4]; mouse, in vivo): no spontaneous hemorrhage
toxicity in chronic experiment ([4]; mouse, in vivo): not toxic
tyrosine phosphorylation of 120-140 kDa proteins [5]: also observed
cellular binding to Matrigel [6]: does not inhibit cellular binding to Matrigel
cellular binding to laminin [6]: does not significantly inhibit cellular binding to laminin
50% inhibition (IC50) of human platelet aggregation in platelet rich plasma [7]: 0.8 µg/mL
concentration that completely inhibits ADP-induced platelet aggregation ([7]; preincubation for 1 minute): approximately 100 nM
Inhibition of HT1080 cell binding to fibronectin ([8]; CN at 1 μg/ml): 89%
Inhibition of HT1080 cell binding to fibronectin ([8]; CN at 5 μg/ml): 85%
